In PMC10177266, “Interaction between Human Papillomavirus-Encoded E6 Protein and AurB Induces Cell Immortalization and Proliferation—A Potential Target of Intervention” (Cancers, 2023):

Tests used:
Assay in all cases: pull-down; purified GST fusion proteins on glutathione agarose incubated with in vitro-translated Flag-AurB for 1 h at room temperature; washed thrice with PBS with 0.1% Tween 20; bound AurB detected by western blot, quantitated with ImageJ and normalized to the GST fusion protein
[1] = biological target: GST-HPV16 E6 with its C-terminus PDZ binding motif depleted (E6ΔPBM) (human papillomavirus type 16) (UniProt P03126)
GST-HPV16 E6 T140A = biological target: T1, GST-HPV16 E6 T140A (human papillomavirus type 16, UniProt P03126 1-158, T140A); conditions: one partner purified
T1 construct: E6 oncoprotein of human papillomavirus type 16 with T140A; source: E. coli, purified on glutathione-conjugated agarose resin

GST-HPV16 E6 S89A = biological target: T2, GST-HPV16 E6 S89A (human papillomavirus type 16, UniProt P03126 1-158, S89A); conditions: one partner purified
T2 construct: E6 oncoprotein of human papillomavirus type 16 with S89A; source: E. coli, purified on glutathione-conjugated agarose resin

GST-HPV16 E6 S150A = biological target: T3, GST-HPV16 E6 S150A (human papillomavirus type 16, UniProt P03126 1-158, S150A); conditions: one partner purified
T3 construct: E6 oncoprotein of human papillomavirus type 16 with S150A; source: E. coli, purified on glutathione-conjugated agarose resin

GST-HPV16 E6 S145A = biological target: T4, GST-HPV16 E6 S145A (human papillomavirus type 16, UniProt P03126 1-158, S145A); conditions: one partner purified
T4 construct: E6 oncoprotein of human papillomavirus type 16 with S145A; source: E. coli, purified on glutathione-conjugated agarose resin

Molecule	fold of bound AurB against E6 wild type [1]	bound AurB, percent of E6 wild type (GST-HPV16 E6 T140A)	bound AurB, percent of E6 wild type (GST-HPV16 E6 S89A)	bound AurB, percent of E6 wild type (GST-HPV16 E6 S150A)	bound AurB, percent of E6 wild type (GST-HPV16 E6 S145A)
Flag-tagged Aurora kinase B (from UniProt Q96GD4 1-344) (enzyme)	3 fold				
Flag-tagged Aurora kinase B (enzyme, Aurora kinase B, human, from pcDNA:Flag-Aurora kinase B; the functional rows use this molecule for that purified protein; also called FL-AurB; Flag-AurB; source: in vitro translated (TNT Coupled Reticulocyte Lysate System, Promega)) MAQKENSYPWPYGRQTAPSGLSTLPQRVLRKEPVTPSALVLMSRSNVQPTAAPGQKVMENSSGTPDILTRHFTIDDFEIGRPLGKGKFGNVYLAREKKSHFIVALKVLFKSQIEKEGVEHQLRREIEIQAHLHHPNILRLYNYFYDRRRIYLILEYAPRGELYKELQKSCTFDEQRTATIMEELADALMYCHGKKVIHRDIKPENLLLGLKGELKIADFGWSVHAPSLRRKTMCGTLDYLPPEMIEGRMHNEKVDLWCIGVLCYELLVGNPPFESASHNETYRRIVKVDLKFPASVPMGAQDLISKLLRHNPSERLPLAQVSAHPWVRANSRRVLPPSALQSVA		45%	44%	57%	27%
